From publication PMC6249844 (Molecular Biology of the Cell, 2018) come the findings set out here.

The test has as its target RFP-tagged cargo selection complex (Vps35, Vps26, Vps29-RFP) (S. cerevisiae, UniProt P34110;P40335;P38759). The test can be described thus: recruitment to giant unilamellar vesicles.

Sequence of RFP-tagged cargo selection complex (Vps35, Vps26, Vps29-RFP) (P34110 whole entry, chain 1 of 3): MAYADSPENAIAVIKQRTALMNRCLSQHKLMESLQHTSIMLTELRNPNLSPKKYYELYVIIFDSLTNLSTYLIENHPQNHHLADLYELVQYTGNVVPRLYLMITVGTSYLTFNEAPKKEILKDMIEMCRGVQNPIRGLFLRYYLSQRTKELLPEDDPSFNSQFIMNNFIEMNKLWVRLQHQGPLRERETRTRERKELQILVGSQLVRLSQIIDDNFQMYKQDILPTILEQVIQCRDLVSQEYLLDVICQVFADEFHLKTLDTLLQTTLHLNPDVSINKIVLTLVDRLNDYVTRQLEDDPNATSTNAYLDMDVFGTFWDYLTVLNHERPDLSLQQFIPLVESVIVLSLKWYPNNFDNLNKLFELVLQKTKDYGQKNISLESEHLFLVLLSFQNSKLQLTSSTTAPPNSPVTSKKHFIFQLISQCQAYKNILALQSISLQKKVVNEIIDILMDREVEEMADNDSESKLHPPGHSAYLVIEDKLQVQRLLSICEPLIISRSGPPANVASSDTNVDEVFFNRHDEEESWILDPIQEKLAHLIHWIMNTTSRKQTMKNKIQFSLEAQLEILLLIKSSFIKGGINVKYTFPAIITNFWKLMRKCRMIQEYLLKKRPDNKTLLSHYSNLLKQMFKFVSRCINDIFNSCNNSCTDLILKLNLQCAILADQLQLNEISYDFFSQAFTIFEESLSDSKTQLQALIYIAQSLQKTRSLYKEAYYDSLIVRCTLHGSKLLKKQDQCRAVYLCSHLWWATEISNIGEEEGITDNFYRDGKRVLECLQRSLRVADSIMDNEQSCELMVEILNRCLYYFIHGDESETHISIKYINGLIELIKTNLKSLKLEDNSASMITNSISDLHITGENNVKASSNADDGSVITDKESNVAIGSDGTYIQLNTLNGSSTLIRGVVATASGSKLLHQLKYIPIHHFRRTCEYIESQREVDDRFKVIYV
Sequence of RFP-tagged cargo selection complex (Vps35, Vps26, Vps29-RFP) (P40335 whole entry, chain 2 of 3): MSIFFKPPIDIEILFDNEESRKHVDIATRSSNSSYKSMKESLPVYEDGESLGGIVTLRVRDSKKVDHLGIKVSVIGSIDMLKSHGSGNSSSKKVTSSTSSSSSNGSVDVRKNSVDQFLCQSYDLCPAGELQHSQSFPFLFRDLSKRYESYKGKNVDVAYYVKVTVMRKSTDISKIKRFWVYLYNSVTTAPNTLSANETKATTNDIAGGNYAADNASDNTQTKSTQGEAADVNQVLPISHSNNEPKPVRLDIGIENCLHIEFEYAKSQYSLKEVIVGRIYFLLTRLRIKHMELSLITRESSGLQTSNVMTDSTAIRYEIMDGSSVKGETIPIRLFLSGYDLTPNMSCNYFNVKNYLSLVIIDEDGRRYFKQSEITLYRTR
Sequence of RFP-tagged cargo selection complex (Vps35, Vps26, Vps29-RFP) (P38759 whole entry, chain 3 of 3): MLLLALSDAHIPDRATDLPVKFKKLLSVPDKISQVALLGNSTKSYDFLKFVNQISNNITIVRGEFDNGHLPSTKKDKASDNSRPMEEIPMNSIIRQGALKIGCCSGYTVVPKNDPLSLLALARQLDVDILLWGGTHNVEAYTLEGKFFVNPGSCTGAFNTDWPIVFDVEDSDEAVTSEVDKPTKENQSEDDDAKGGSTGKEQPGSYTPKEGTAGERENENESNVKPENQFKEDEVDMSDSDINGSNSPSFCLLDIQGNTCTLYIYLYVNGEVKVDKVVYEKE

B1: Snx3-mGFP (His-SUMO-Snx3-mGFP) (natural protein)
chain: MPREFKSFGSTEKSLLSKGHGEPSYSEIYAEPENFLEIEVHNPKTHIPNGMDSKGMFTDYEIICRTNLPSFHKRVSKVRRRYSDFEFFRKCLIKEISMLNHPKVMVPHLPGKILLSNRFSNEVIEERRQGLNTWMQSVAGHPLLQSGSKVLVRFIEAEKFVG
For B1, the binding result is “binds”.

B2: GFP-tagged SNX-BAR complex (Vps5-Vps17 heterodimer with Vps17-GFP) (complex)
chain 1: MDYEDNLEAPVWDELNHEGDKTQSLVSNSIESIGQISTNEERKDNELLETTASFADKIDLDSAPEWKDPGLSVAGNPQLEEHDNSKADDLINSLAPEQDPIADLKNSTTQFIATRESGGALFTGNANSPLVFDDTIYDANTSPNTSKSISGRRSGKPRILFDSARAQRNSKRNHSLKAKRTTASDDTIKTPFTDPLKKAEKENEFVEEPLDDRNERRENNEGKFTASVEKNILEQVDRPLYNLPQTGANISSPAEVEENSEKFGKTKIGSKVPPTEKAVAFKVEVKDPVKVGELTSIHVEYTVISESSLLELKYAQVSRRYRDFRWLYRQLQNNHWGKVIPPPPEKQSVGSFKENFIENRRFQMESMLKKICQDPVLQKDKDFLLFLTSDDFSSESKKRAFLTGSGAINDSNDLSEVRISEIQLLGAEDAAEVLKNGGIDAESHKGFMSISFSSLPKYNEADEFFIEKKQKIDELEDNLKKLSKSLEMVDTSRNTLAASTEEFSSMVETLASLNVSEPNSELLNNFADVHKSIKSSLERSSLQETLTMGVMLDDYIRSLASVKAIFNQRSKLGYFLVVIENDMNKKHSQLGKLGQNIHSEKFREMRKEFQTLERRYNLTKKQWQAVGDKIKDEFQGFSTDKIREFRNGMEISLEAAIESQKECIELWETFYQTNL
chain 2: MTSAVPYDPYDDLDNNPFAEPQEEDSEPAATTTDGSSSMSEERVGTEQTAASVQDNGTANNIQNGLGEEGNATRSKTSNEHNENQQPSQPSERVILPERSDEKKKYTLLAKVTGLERFGSATGKKENPTIIFDCSTNLPTFRKQQYKNVKKSYEEFHQLFKYLNVAIQESFVPTLPSAYTTFGINSEEDRMKVTRNFQLWFNRLSQDPLIIRNEEVAFFIESDFNTYTPINKSKSLASGLKRKTLKQLAPPYDEITELAEFRPLVKSIYVVSQSLQEKLLRVSRNRKMMVQEENAFGQDFVNLDEHNKLYRRYGKILTAVGDIDSIIATMDMATLYDGLEWIVRDAYAVKEALTNRHFIMRNLVQAQQNSKAKQEQARRFRSRRDINPMKIDEALRQLKAAAKNEQVLTLKLQRITSNMIIERKQWISWYEEWIRSSIKEFTLRKIEYERKKLTLLERVRSDIRKADENGGLSRLGRHAVSNNNSDTSQTLKGDSWTGESNRKSQIPINKIAHTEFDDELFTEDDGYNSQDSDTTSLNARHAASLLGMSTK
As for B2, the binding result is “binds”.

B3: SNX-BAR complex without GFP tag (Vps5-Vps17 heterodimer) (complex)
chain 1: MDYEDNLEAPVWDELNHEGDKTQSLVSNSIESIGQISTNEERKDNELLETTASFADKIDLDSAPEWKDPGLSVAGNPQLEEHDNSKADDLINSLAPEQDPIADLKNSTTQFIATRESGGALFTGNANSPLVFDDTIYDANTSPNTSKSISGRRSGKPRILFDSARAQRNSKRNHSLKAKRTTASDDTIKTPFTDPLKKAEKENEFVEEPLDDRNERRENNEGKFTASVEKNILEQVDRPLYNLPQTGANISSPAEVEENSEKFGKTKIGSKVPPTEKAVAFKVEVKDPVKVGELTSIHVEYTVISESSLLELKYAQVSRRYRDFRWLYRQLQNNHWGKVIPPPPEKQSVGSFKENFIENRRFQMESMLKKICQDPVLQKDKDFLLFLTSDDFSSESKKRAFLTGSGAINDSNDLSEVRISEIQLLGAEDAAEVLKNGGIDAESHKGFMSISFSSLPKYNEADEFFIEKKQKIDELEDNLKKLSKSLEMVDTSRNTLAASTEEFSSMVETLASLNVSEPNSELLNNFADVHKSIKSSLERSSLQETLTMGVMLDDYIRSLASVKAIFNQRSKLGYFLVVIENDMNKKHSQLGKLGQNIHSEKFREMRKEFQTLERRYNLTKKQWQAVGDKIKDEFQGFSTDKIREFRNGMEISLEAAIESQKECIELWETFYQTNL
chain 2: MTSAVPYDPYDDLDNNPFAEPQEEDSEPAATTTDGSSSMSEERVGTEQTAASVQDNGTANNIQNGLGEEGNATRSKTSNEHNENQQPSQPSERVILPERSDEKKKYTLLAKVTGLERFGSATGKKENPTIIFDCSTNLPTFRKQQYKNVKKSYEEFHQLFKYLNVAIQESFVPTLPSAYTTFGINSEEDRMKVTRNFQLWFNRLSQDPLIIRNEEVAFFIESDFNTYTPINKSKSLASGLKRKTLKQLAPPYDEITELAEFRPLVKSIYVVSQSLQEKLLRVSRNRKMMVQEENAFGQDFVNLDEHNKLYRRYGKILTAVGDIDSIIATMDMATLYDGLEWIVRDAYAVKEALTNRHFIMRNLVQAQQNSKAKQEQARRFRSRRDINPMKIDEALRQLKAAAKNEQVLTLKLQRITSNMIIERKQWISWYEEWIRSSIKEFTLRKIEYERKKLTLLERVRSDIRKADENGGLSRLGRHAVSNNNSDTSQTLKGDSWTGESNRKSQIPINKIAHTEFDDELFTEDDGYNSQDSDTTSLNARHAASLLGMSTK
Consider B3, for which the binding result is “binds”.
